# Measurements: patent publication US20120052007A1, “PERIPHERAL BLOOD SPARC BINDING ANTIBODIES AND USES THEREOF” (ABRAXIS BIOSCIENCE, LLC, priority 2010, published 2012)
# B1: SPARC: recombinant wild-type human SPARC (BIO1), exogenously administered (protein)
# chain: APQQEALPDETEVVEETVAEVTEVSVGANPVQVEVGEFDDGAEETEEEVVAENPCQNHHCKHGKVCELDENNTPMCVCQDPTSCPAPIGEFEKVCSNDNKTFDSSCHFFATKCTLEGTKKGHKLHLDYIGPCKYIPPCLDSELTEFPLRMRDWLKNVLVTLYERDEDNNLLTEKQKLRVKKIHENEKRLEAGDHPVELLARDFEKNYNMYIFPVHWQFGQLDQHPIDGYLSHTELAPLRAPLIPMEHCTTRFFETCDLDNDKYIALDEWAGCFGIKQKDIDKDLVI
# Assays:
# HT29 (colon) = tested on: HT29 (colon)
# Text: Female and male athymic NCr-nu mice between 5 and 6 weeks of age weighing approximately 20 g were purchased from Harlan, Inc. (Madison, Wis., USA). Human cancer cells HT29 (colon), PC3 (prostate), and MDA-MB-231 (breast) were propagated in cell culture and implanted subcutaneously at one million cells per flank of female (for MDA-MB-231 and HT29) or male (for PC3 prostate tumor) nude mice and allowed to grow to approximately 60-100 mm^3 before treatment was initiated. Treatments included 5-fluorouracil (5FU), docetaxel (Taxotere®), albumin-bound paclitaxel (nab-paclitaxel), nab-paclitaxel plus suntinib malate (Sutent®), or nab-paclitaxel plus bevacizumab (Avastin®) with or without exogenously administered SPARC). Control animals for each xenograft were administered PBS. The longest (length) and shortest (width) tumor diameters (millimeter) and tumor depth were measured twice weekly. The tumor volume was calculated with the formula: tumor volume (mm3)=width×length×depth. Tumor growth inhibition (TGI) was defined as the percentage of tumor volume reduction compared with the control group at the time of euthanasia for the control animals. Tumor doubling time was defined as the time required for the tumor volume to double […]. Animal weights were measured twice weekly. Statistical analysis was performed using the Prism program (GraphPad, San Diego, Calif., USA). Analysis of variance (ANOVA) statistic was used to compare tumor growth curves.
# MDA-MB-231 (breast) = experiment: MDA-MB-231 breast cancer xenograft; type: in vivo, mice; details: MDA-MB-231 xenograft, nab-paclitaxel 10 mg/kg, P<0.001 (FIG. 24C)
# Method: (§1) Control animals for each xenograft were administered PBS. […] Animal weights were measured twice weekly.
# (§2) These findings were further confirmed in the MDA-MB-231 breast cancer xenografts (FIG. 24C) and PC3 prostate cancer xenografts (FIG. 24D). […] In these experiments, nab-paclitaxel was dosed sub-optimally at 10 mg/kg, daily for five cycles.
# PC3 (prostate) = experiment: PC3 prostate cancer xenograft; type: in vivo, mice; details: nab-paclitaxel 10 mg/kg, P<0.001 (FIG. 24D)
# Method: as §1, §2
# [1] = tested on: human umbilical cord vein endothelial cells (HUVEC); experiment: HUVEC bead sprouting angiogenesis assay; type: cell-based; details: 5 days
# Method: First, the effect of SPARC on sprouting was studied in an in vitro angiogenesis model system that was prepared using human umbilical cord vein endothelial cells (HUVEC) as described by Nakatsu et al (Methods Enzymol. 443:65-82 (2008)). Low passage HUVEC grown in M199 media supplemented with 10% FBS (Gibco, Carlsbad, Calif.) were switched to EGM-2 media (Clonetics, Walkersville, Md.) 2 days before beading. Cytodex 3 microcarrier beads (Amersham Pharmacia Biotech, Piscataway, N.J.) were hydrated and washed with PBS (pH 7.4). 1×10^6 HUVEC cells were incubated with 2500 hydrated and sterilized beads in EGM-2 medium for 4 hours at 37° C. for coating. The coated beads were next embedded in 2 mg/mL fibrinogen in PBS with 0.15 units/mL aprotinin at a concentration of 500 beads/mL. Next, 0.625 units/mL thrombin was added and 0.5 mL of the mixture was added to each well of a 24 well plate. The solution was allowed to clot at RT for 5 minutes and 37° C. for another 15 min. After clotting 20,000 lung fibroblast cells in EGM-2 media were seeded in each well. Either 1, 10 or 100 μg/mL BioI SPARC protein in PBS, or PBS without protein was added to the growth medium and cultures were maintained for 5 days until sprouting was evaluated by light microscopy. The number of tubes formed/bead and the morphology of sprouting HUVEC cells in the cultures were determined using image pro software (Media Cybernetics, Bethesda, Md.).
# [2] = tested on: endothelial cell tubule formation; experiment: TCS Cellworks AngioKit tubule formation assay; type: cell-based, human; details: 11 days
# Text: Next, the effect of SPARC on tubule formation was examined using the TCS cellworks human Angiokit model kit (TCS-ZHA-1000, TCS Cell Works Buckingham, UK). In this assay, the endothelial cells initially form small islands within the culture matrix. They subsequently begin to proliferate and then enter a migratory phase during which they move through the matrix to form threadlike tubule structures. These gradually join up (by 9-11 days) to form a network of anastomosing tubules which closely resembles a capillary bed.
# 24-well pre-seeded endothelial cell tissue culture plates containing early stage co-cultures (day 2-3) were used according to manufacturer's recommendations (TCS Cell Works, Buckingham, UK). The cultures were incubated at 37° C./5% CO2 for 11 days. Media on the cultures was changed with added test and control compounds on days 4, 7 and 9 after initial treatment, followed by fixation with 70% ethanol on day 11. Fixed cultures were subsequently stained as follows: Primary rabbit anti-CD31 antibody (Thermo Scientific) was diluted to a final concentration of 2 μg/mL in PBS/1% BSA blocking buffer. Then, 0.5 mL of diluted anti-CD31 antibody was added to each well and incubated for 1 h at 37° C. […]
# The number and lengths of tubules formed were then evaluated by light microscopy. […] Total vessel number, total tubule area and the number of branch points can be similarly determined.
# MDA-MB-435-Luc+ = MDA-MB-435-Luc+ orthotopic metastatic model; type: in vivo, mice
# Method: MDA-MB-435-Luc+ were implanted orthotopic in mammary fat pad (MFP) at 4×10^6 cells in 50% Matrigel and allowed to reach average tumor volume of 180 mm^3 before treatment. Treatments were: 2 cycles of 10 mg/kg nab-paclitaxel, 4 mg/kg SPARC, and bevacizumab biweekly. At appropriate time interval, the following organs were harvested for quantitation of metastasis: Proximal lymph nodes, contralateral lymph nodes, lungs, liver and brain. Statistical tests used included t-test and Mann Whitney-U.
# Mice were monitored 2-3 times a week and tumor growth was recorded. Mice were sorted when tumor volumes reached 180 mm^3, and the first cycle of treatment was administered. Seven rest days were given between the first and second cycle. Bevacizumab and SPARC were continually administered during the rest period. Weight was measured periodically throughout the study to assess toxic effects from the therapy.
# The following dosing schedules were followed: Control (Group 1); 10 mg/kg nab-paclitaxel daily for 3 to 5 cycles (Group 2); 4 mg/kg soluble SPARC (Bio 1) injected i.v. biweekly (Group 3); and 10 mg/kg nab-paclitaxel daily for two to five cycles and 4 mg/kg SPARC-biweekly (Group 4).
# Total metastatic burden was also calculated. It is presented as measured luciferase activity in tissue extracts expressed in RLU normalized per mg protein. All contralateral lymph nodes were negative for all groups. There were a few incidences of metastasis occurred in the proximal lymph node, liver and brain. […] Liver metastasis occurred somewhat frequently in the both control and SPARC groups (present in 3 mice in each group). There was also one control mouse that had brain metastasis.
# [3] = tested on: recombinant human SPARC protein; experiment: Tube Formation Assay (AngioKit) with SPARC and SPARC binding antibodies; type: cell-based; details: 10 μg/mL recombinant human SPARC in the culture media
# Method: This assay was performed using the TCS Cellworks human AngioKit model kit (TCS-ZHA-1000, TCS Cell Works, Buckingham, UK) as described in Example 10 above. The media contained 10 μg/mL recombinant human SPARC protein. The media also contained 300 μg/mL of one of the above prepared mouse SPARC binding monoclonal antibodies (Imm12, Imm14, mHTI), or a control (mouse IgG).
# To examine the effect of SPARC on tubule formation, and interference with that function by SPARC binding monoclonal antibodies, the number of tubules formed and their length was evaluated by light microscopy.
molecule,measurement,setting,value
B1,impact of SPARC treatment on the nab-paclitaxel/bevacizumab combination,HT29 (colon); HT29 xenograft (FIG. 24B),minimal negative impact
same,Tumor growth inhibition (TGI),"HT29 (colon); HT29 xenograft, versus control group at euthanasia of control animals",35.4%
same,effect of SPARC administration on antitumor effects of nab-paclitaxel and suntinib,MDA-MB-231 (breast),significantly inhibited
same,effect of SPARC administration on antitumor effects of nab-paclitaxel and bevacizumab,PC3 (prostate),significantly inhibited
same,seeded HUVEC/beads that had developed sprouts,[1]; 1 μg/mL SPARC,less than 50%
same,average sprouts/bead,[1]; 10 μg/mL SPARC,0.9 sprouts/bead
same,average sprouts/bead,[1]; 100 μg/mL SPARC,1.9 sprouts/bead
same,angiogenic activity (tubule formation),[2]; high concentration of SPARC (100 μg/mL),significantly inhibited angiogenesis
same,angiogenic activity (tubule formation),[2]; low concentrations of SPARC (1 and 10 μg/mL),stimulate angiogenesis
same,tumor growth rate,MDA-MB-435-Luc+; MDA-MB-435-Luc+ mammary fat pad tumors,23.16±4.38 mm3/day
same,average tumor volume,MDA-MB-435-Luc+; in 63 days,1765 mm3
same,"lung metastatic burden, average RLU/mg total protein",MDA-MB-435-Luc+; luciferase activity in lung tissue extracts,31630±10820 RLU/mg total protein
same,mice positive for lung metastasis,"MDA-MB-435-Luc+; mouse, in vivo",9 of 9
same,mice with liver metastasis,"MDA-MB-435-Luc+; mouse, in vivo",3 mice
same,Tumor Volume on day 56,"MDA-MB-435-Luc+; mouse, in vivo, in mm³ (unit assumed)",1524
same,% Inhibition,MDA-MB-435-Luc+; tumor volume on day 56,35%
same,tubule formation,[3],formation of numerous long tubules
